In US20260167699A1 (Chugai, published 2026):

T1: FcγRIIa(R) (human, UniProt P12318 34-217)
T1 construct: extracellular domain; also called FcγRIIa R type; 2aR
T1 sequence: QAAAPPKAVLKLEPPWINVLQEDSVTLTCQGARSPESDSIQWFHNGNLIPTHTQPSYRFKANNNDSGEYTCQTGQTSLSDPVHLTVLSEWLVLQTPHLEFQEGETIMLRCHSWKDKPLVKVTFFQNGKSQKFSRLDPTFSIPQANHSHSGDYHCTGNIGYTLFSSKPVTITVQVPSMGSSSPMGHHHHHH

T2: FcγRIIa(H) (human, UniProt P12318 34-217)
T2 construct: extracellular domain; also called FcγRIIa H type; 2aH
T2 sequence: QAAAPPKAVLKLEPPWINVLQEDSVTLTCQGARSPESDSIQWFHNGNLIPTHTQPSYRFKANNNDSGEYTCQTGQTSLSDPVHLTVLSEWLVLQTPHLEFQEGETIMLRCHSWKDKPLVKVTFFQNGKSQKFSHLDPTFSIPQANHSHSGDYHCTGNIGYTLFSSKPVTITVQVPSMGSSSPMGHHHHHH

T3: FcγRIIb (human, UniProt P31994 43-217)
T3 construct: extracellular domain; also called 2b
T3 sequence: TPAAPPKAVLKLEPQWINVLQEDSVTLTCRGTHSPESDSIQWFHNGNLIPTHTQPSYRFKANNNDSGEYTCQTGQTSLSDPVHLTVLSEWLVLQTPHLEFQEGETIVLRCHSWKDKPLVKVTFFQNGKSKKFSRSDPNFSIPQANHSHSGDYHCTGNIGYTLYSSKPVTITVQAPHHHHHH


Columns and labels:
Test in all cases: SPR (Biacore), binding relative to GpH7-A5/GpH7-B3/GpL16-k0 x100;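 also: surface plasmon resonance at 25 °C, antibody captured on a sensor chip and soluble FcγR flowed over it in HBS-EP+ running buffer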
FcγRIIa(R) = biological target: T1, FcγRIIa(R)
FcγRIIa(H) = biological target: T2, FcγRIIa(H)
FcγRIa = biological target: T4, FcγRIa (human, UniProt P12314 16-292)
T4 construct: extracellular domain; also called 1a
T4 sequence (P12314 other isoform, or with tags, fused parts or gaps): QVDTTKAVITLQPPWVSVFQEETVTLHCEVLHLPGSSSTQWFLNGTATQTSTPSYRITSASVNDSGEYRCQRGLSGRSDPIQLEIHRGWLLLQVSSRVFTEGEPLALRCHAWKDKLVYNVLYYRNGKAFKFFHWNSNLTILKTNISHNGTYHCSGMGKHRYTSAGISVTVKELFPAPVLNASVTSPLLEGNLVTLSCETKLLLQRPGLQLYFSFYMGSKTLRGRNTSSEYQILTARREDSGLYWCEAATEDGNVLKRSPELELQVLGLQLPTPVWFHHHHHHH

FcγRIIb = biological target: T3, FcγRIIb

Row | He/Con 2aR (FcγRIIa(R)) [%] | He/Con 2aH (FcγRIIa(H)) [%] | He/Con 1a (FcγRIa) [%] | He/Con 2b (FcγRIIb) [%] | Binder
1 | 98 | 100 | 97.3 | 92 | GpH7-A5/GpH7-B3 variant L234_18N/GpL16-k0 (antibody, human IgG1, kappa, heterodimerized IgG1, one H chain mutated; also called He Ab) heavy 1: not shown heavy 2: not shown light: DIVMTQSPLSLPVTPGEPASISCQASESLVHSNRNTYLHWYLQKPGQSPQLLIYKVSNRFSGVPDRFSGSGSGTDFTLKISRVEAEDVGVYYCSQNTHVPPTFGQGTKVEIERTVAAPSVFIFPPSDEQLKSGTASVVCLLNNFYPREAKVQWKVDNALQSGNSQESVTEQDSKDSTYSLSSTLTLSKADYEKHKVYACEVTHQGLSSPVTKSFNRGEC
2 | 132 | 123 | 100 | 135 | GpH7-A5/GpH7-B3 variant L235_04F/GpL16-k0 (antibody, human IgG1, kappa, heterodimerized IgG1, one H chain mutated; also called He Ab) heavy 1: not shown heavy 2: not shown light: DIVMTQSPLSLPVTPGEPASISCQASESLVHSNRNTYLHWYLQKPGQSPQLLIYKVSNRFSGVPDRFSGSGSGTDFTLKISRVEAEDVGVYYCSQNTHVPPTFGQGTKVEIERTVAAPSVFIFPPSDEQLKSGTASVVCLLNNFYPREAKVQWKVDNALQSGNSQESVTEQDSKDSTYSLSSTLTLSKADYEKHKVYACEVTHQGLSSPVTKSFNRGEC
3 | 74.6 | 64.2 | 97.8 | 62.4 | GpH7-A5/GpH7-B3 variant L235_05P/GpL16-k0 (antibody, human IgG1, kappa, heterodimerized IgG1, one H chain mutated; also called He Ab) heavy 1: not shown heavy 2: not shown light: DIVMTQSPLSLPVTPGEPASISCQASESLVHSNRNTYLHWYLQKPGQSPQLLIYKVSNRFSGVPDRFSGSGSGTDFTLKISRVEAEDVGVYYCSQNTHVPPTFGQGTKVEIERTVAAPSVFIFPPSDEQLKSGTASVVCLLNNFYPREAKVQWKVDNALQSGNSQESVTEQDSKDSTYSLSSTLTLSKADYEKHKVYACEVTHQGLSSPVTKSFNRGEC
4 | 150 | 135 | 100 | 170 | GpH7-A5/GpH7-B3 variant L235_15Y/GpL16-k0 (antibody, human IgG1, kappa, heterodimerized IgG1, one H chain mutated; also called He Ab) heavy 1: not shown heavy 2: not shown light: DIVMTQSPLSLPVTPGEPASISCQASESLVHSNRNTYLHWYLQKPGQSPQLLIYKVSNRFSGVPDRFSGSGSGTDFTLKISRVEAEDVGVYYCSQNTHVPPTFGQGTKVEIERTVAAPSVFIFPPSDEQLKSGTASVVCLLNNFYPREAKVQWKVDNALQSGNSQESVTEQDSKDSTYSLSSTLTLSKADYEKHKVYACEVTHQGLSSPVTKSFNRGEC
5 | 83.4 | 94.9 | 97.8 | 75.8 | GpH7-A5/GpH7-B3 variant L235_03V/GpL16-k0 (antibody, human IgG1, kappa, heterodimerized IgG1, one H chain mutated; also called He Ab) heavy 1: not shown heavy 2: not shown light: DIVMTQSPLSLPVTPGEPASISCQASESLVHSNRNTYLHWYLQKPGQSPQLLIYKVSNRFSGVPDRFSGSGSGTDFTLKISRVEAEDVGVYYCSQNTHVPPTFGQGTKVEIERTVAAPSVFIFPPSDEQLKSGTASVVCLLNNFYPREAKVQWKVDNALQSGNSQESVTEQDSKDSTYSLSSTLTLSKADYEKHKVYACEVTHQGLSSPVTKSFNRGEC
6 | 87.2 | 88.1 | 98.8 | 68.9 | GpH7-A5/GpH7-B3 variant L234_19Q/GpL16-k0 (antibody, human IgG1, kappa, heterodimerized IgG1, one H chain mutated; also called He Ab) heavy 1: not shown heavy 2: not shown light: DIVMTQSPLSLPVTPGEPASISCQASESLVHSNRNTYLHWYLQKPGQSPQLLIYKVSNRFSGVPDRFSGSGSGTDFTLKISRVEAEDVGVYYCSQNTHVPPTFGQGTKVEIERTVAAPSVFIFPPSDEQLKSGTASVVCLLNNFYPREAKVQWKVDNALQSGNSQESVTEQDSKDSTYSLSSTLTLSKADYEKHKVYACEVTHQGLSSPVTKSFNRGEC
7 | 117 | 84.3 | 87.6 | 121 | GpH7-A5/GpH7-B3 variant L235_09D/GpL16-k0 (antibody, human IgG1, kappa, heterodimerized IgG1, one H chain mutated; also called He Ab) heavy 1: not shown heavy 2: not shown light: DIVMTQSPLSLPVTPGEPASISCQASESLVHSNRNTYLHWYLQKPGQSPQLLIYKVSNRFSGVPDRFSGSGSGTDFTLKISRVEAEDVGVYYCSQNTHVPPTFGQGTKVEIERTVAAPSVFIFPPSDEQLKSGTASVVCLLNNFYPREAKVQWKVDNALQSGNSQESVTEQDSKDSTYSLSSTLTLSKADYEKHKVYACEVTHQGLSSPVTKSFNRGEC
8 | 106 | 96.3 | 101 | 92.4 | GpH7-A5/GpH7-B3 variant L235_06M/GpL16-k0 (antibody, human IgG1, kappa, heterodimerized IgG1, one H chain mutated; also called He Ab) heavy 1: not shown heavy 2: not shown light: DIVMTQSPLSLPVTPGEPASISCQASESLVHSNRNTYLHWYLQKPGQSPQLLIYKVSNRFSGVPDRFSGSGSGTDFTLKISRVEAEDVGVYYCSQNTHVPPTFGQGTKVEIERTVAAPSVFIFPPSDEQLKSGTASVVCLLNNFYPREAKVQWKVDNALQSGNSQESVTEQDSKDSTYSLSSTLTLSKADYEKHKVYACEVTHQGLSSPVTKSFNRGEC
9 | 125 | 126 | 102 | 131 | GpH7-A5/GpH7-B3 variant L234_20W/GpL16-k0 (antibody, human IgG1, kappa, heterodimerized IgG1, one H chain mutated; also called He Ab) heavy 1: not shown heavy 2: not shown light: DIVMTQSPLSLPVTPGEPASISCQASESLVHSNRNTYLHWYLQKPGQSPQLLIYKVSNRFSGVPDRFSGSGSGTDFTLKISRVEAEDVGVYYCSQNTHVPPTFGQGTKVEIERTVAAPSVFIFPPSDEQLKSGTASVVCLLNNFYPREAKVQWKVDNALQSGNSQESVTEQDSKDSTYSLSSTLTLSKADYEKHKVYACEVTHQGLSSPVTKSFNRGEC
10 | 75.9 | 73.5 | 93.5 | 55 | GpH7-A5/GpH7-B3 variant L235_13S/GpL16-k0 (antibody, human IgG1, kappa, heterodimerized IgG1, one H chain mutated; also called He Ab) heavy 1: not shown heavy 2: not shown light: DIVMTQSPLSLPVTPGEPASISCQASESLVHSNRNTYLHWYLQKPGQSPQLLIYKVSNRFSGVPDRFSGSGSGTDFTLKISRVEAEDVGVYYCSQNTHVPPTFGQGTKVEIERTVAAPSVFIFPPSDEQLKSGTASVVCLLNNFYPREAKVQWKVDNALQSGNSQESVTEQDSKDSTYSLSSTLTLSKADYEKHKVYACEVTHQGLSSPVTKSFNRGEC
11 | 70.6 | 79.5 | 91.6 | 53.4 | GpH7-A5/GpH7-B3 variant L235_14T/GpL16-k0 (antibody, human IgG1, kappa, heterodimerized IgG1, one H chain mutated; also called He Ab) heavy 1: not shown heavy 2: not shown light: DIVMTQSPLSLPVTPGEPASISCQASESLVHSNRNTYLHWYLQKPGQSPQLLIYKVSNRFSGVPDRFSGSGSGTDFTLKISRVEAEDVGVYYCSQNTHVPPTFGQGTKVEIERTVAAPSVFIFPPSDEQLKSGTASVVCLLNNFYPREAKVQWKVDNALQSGNSQESVTEQDSKDSTYSLSSTLTLSKADYEKHKVYACEVTHQGLSSPVTKSFNRGEC
12 | 86.6 | 77.6 | 95.2 | 72 | GpH7-A5/GpH7-B3 variant L235_02A/GpL16-k0 (antibody, human IgG1, kappa, heterodimerized IgG1, one H chain mutated; also called He Ab) heavy 1: not shown heavy 2: not shown light: DIVMTQSPLSLPVTPGEPASISCQASESLVHSNRNTYLHWYLQKPGQSPQLLIYKVSNRFSGVPDRFSGSGSGTDFTLKISRVEAEDVGVYYCSQNTHVPPTFGQGTKVEIERTVAAPSVFIFPPSDEQLKSGTASVVCLLNNFYPREAKVQWKVDNALQSGNSQESVTEQDSKDSTYSLSSTLTLSKADYEKHKVYACEVTHQGLSSPVTKSFNRGEC
13 | 98.7 | 80 | 96.9 | 90.8 | GpH7-A5/GpH7-B3 variant L235_10E/GpL16-k0 (antibody, human IgG1, kappa, heterodimerized IgG1, one H chain mutated; also called He Ab) heavy 1: not shown heavy 2: not shown light: DIVMTQSPLSLPVTPGEPASISCQASESLVHSNRNTYLHWYLQKPGQSPQLLIYKVSNRFSGVPDRFSGSGSGTDFTLKISRVEAEDVGVYYCSQNTHVPPTFGQGTKVEIERTVAAPSVFIFPPSDEQLKSGTASVVCLLNNFYPREAKVQWKVDNALQSGNSQESVTEQDSKDSTYSLSSTLTLSKADYEKHKVYACEVTHQGLSSPVTKSFNRGEC
14 | 102 | 99.5 | 103 | 100 | GpH7-A5/GpH7-B3 variant L235_07I/GpL16-k0 (antibody, human IgG1, kappa, heterodimerized IgG1, one H chain mutated; also called He Ab) heavy 1: not shown heavy 2: not shown light: DIVMTQSPLSLPVTPGEPASISCQASESLVHSNRNTYLHWYLQKPGQSPQLLIYKVSNRFSGVPDRFSGSGSGTDFTLKISRVEAEDVGVYYCSQNTHVPPTFGQGTKVEIERTVAAPSVFIFPPSDEQLKSGTASVVCLLNNFYPREAKVQWKVDNALQSGNSQESVTEQDSKDSTYSLSSTLTLSKADYEKHKVYACEVTHQGLSSPVTKSFNRGEC
